Data: PMC6906530, “Structural studies of the MMP-3 interaction with triple-helical collagen introduce new roles for the enzyme in tissue remodelling” (Scientific Reports, 2019)
One block for each molecule: values may come before it.

Experiments:
[1] = biological target: collagen I (Guinea pig dermis) (Guinea pig)
[2] = system: collagen I; details: 10:1 molar excess over collagen; cited from earlier work
Excerpt: In both models of collagen fibril assembly, a number of MMP-3 binding sites are concealed, consistent with the observed inhibition of fibrillogenesis in the presence of MMP-3 (Fig. 4g).

collagen I (Guinea pig dermis) (Guinea pig), sequence (main, as listed by the source, chain 1 of 2): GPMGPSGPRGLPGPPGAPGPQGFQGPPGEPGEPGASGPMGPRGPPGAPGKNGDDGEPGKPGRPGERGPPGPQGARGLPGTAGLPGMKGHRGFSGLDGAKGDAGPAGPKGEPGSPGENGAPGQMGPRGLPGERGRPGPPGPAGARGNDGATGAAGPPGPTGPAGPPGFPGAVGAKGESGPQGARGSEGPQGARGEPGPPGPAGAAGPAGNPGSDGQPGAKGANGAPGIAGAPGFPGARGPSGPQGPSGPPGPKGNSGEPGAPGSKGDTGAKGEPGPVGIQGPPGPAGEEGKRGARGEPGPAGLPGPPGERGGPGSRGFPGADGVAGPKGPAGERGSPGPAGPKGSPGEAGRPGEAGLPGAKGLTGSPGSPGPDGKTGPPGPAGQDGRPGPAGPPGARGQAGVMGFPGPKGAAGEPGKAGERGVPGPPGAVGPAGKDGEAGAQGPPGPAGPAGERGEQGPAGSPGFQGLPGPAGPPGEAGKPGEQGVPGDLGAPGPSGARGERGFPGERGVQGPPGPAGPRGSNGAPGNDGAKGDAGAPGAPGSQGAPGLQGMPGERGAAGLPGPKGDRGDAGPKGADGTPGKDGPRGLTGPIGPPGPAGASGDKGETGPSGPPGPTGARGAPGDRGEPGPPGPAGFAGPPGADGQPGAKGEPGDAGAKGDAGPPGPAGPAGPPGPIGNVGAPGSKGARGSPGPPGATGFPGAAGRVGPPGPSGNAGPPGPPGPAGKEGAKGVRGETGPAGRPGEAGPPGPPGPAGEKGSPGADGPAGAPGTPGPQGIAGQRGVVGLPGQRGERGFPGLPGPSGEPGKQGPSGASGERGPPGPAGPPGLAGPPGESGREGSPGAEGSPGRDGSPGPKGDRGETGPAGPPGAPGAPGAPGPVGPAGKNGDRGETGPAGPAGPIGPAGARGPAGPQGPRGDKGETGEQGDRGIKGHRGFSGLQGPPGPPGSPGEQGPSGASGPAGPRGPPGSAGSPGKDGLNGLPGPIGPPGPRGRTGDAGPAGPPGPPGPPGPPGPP
collagen I (Guinea pig dermis) (Guinea pig), sequence (partner, as listed by the source, chain 2 of 2): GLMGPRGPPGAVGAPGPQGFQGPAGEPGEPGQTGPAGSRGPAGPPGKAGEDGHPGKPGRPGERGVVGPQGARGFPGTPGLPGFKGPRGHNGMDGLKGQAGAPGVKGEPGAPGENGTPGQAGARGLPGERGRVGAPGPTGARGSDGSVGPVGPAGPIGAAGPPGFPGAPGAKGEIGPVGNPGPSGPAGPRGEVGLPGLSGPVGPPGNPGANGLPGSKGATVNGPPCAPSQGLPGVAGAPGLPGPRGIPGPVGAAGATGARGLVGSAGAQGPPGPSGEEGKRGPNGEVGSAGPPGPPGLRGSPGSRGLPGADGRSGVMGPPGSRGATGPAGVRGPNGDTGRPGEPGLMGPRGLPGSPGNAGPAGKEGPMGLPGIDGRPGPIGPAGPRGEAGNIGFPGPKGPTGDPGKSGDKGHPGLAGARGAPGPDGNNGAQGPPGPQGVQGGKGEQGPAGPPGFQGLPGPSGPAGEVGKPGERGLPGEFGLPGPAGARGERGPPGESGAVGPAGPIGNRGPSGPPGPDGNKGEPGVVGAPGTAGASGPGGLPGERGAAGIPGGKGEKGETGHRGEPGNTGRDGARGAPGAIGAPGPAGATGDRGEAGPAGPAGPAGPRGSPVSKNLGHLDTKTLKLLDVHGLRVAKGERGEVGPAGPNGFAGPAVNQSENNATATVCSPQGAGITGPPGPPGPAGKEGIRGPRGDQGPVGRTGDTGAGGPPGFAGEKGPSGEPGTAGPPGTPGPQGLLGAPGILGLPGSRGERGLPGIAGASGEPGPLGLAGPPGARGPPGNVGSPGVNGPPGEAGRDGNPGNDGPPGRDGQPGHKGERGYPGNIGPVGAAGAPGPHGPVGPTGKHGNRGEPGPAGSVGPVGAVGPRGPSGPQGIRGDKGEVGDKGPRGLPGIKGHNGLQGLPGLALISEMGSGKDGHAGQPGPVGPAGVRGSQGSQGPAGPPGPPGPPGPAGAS

collagen I fibrillogenesis by turbidity at 500 nm, 37 °C, 1 μM fibrillogenesis-competent collagen I (with telopeptides) with increasing MMP-3(E200A); delay at a ratio of 0.5:1 to collagen I [1]: 50 min
Molecule: mature MMP-3(E200A) (from UniProt P08254 100-477) (enzyme)

B1: SPARC: matricellular calcium binding protein, secreted protein acidic and rich in cysteine (protein, UniProt P09486 18-303, looked up)
SPARC: APQQEALPDETEVVEETVAEVTEVSVGANPVQVEVGEFDDGAEETEEEVVAENPCQNHHCKHGKVCELDENNTPMCVCQDPTSCPAPIGEFEKVCSNDNKTFDSSCHFFATKCTLEGTKKGHKLHLDYIGPCKYIPPCLDSELTEFPLRMRDWLKNVLVTLYERDEDNNLLTEKQKLRVKKIHENEKRLEAGDHPVELLARDFEKNYNMYIFPVHWQFGQLDQHPIDGYLSHTELAPLRAPLIPMEHCTTRFFETCDLDNDKYIALDEWAGCFGIKQKDIDKDLVI
Delay of collagen fibrillogenesis relative to MMP-3(E200A) [2]: comparably
